How the values were obtained:
[1] = target: T1, E. coli single-stranded DNA-binding protein (SSB), wild type (E. coli, UniProt P0AGE0 1-178); test: cell-based or functional assay
[2] = target: T1, E. coli single-stranded DNA-binding …; test: ammonium sulfate co-precipitation

B1: E. coli RecQ (wild type, full-length, hexahistidine-tagged) (enzyme)
chain: not shown
B1 was tested, and the “Fold stimulation of RecQ helicase activity by SSB” value [1] was 9.7 fold.

B2: E. coli RecQ Q428A (enzyme)
chain: not shown
In the case of B2, the “SSB binding in solution relative to wild type” value [2] is reported as ~3%.

B3: E. coli RecQ R448A (enzyme)
chain: not shown
With B3 the “co-precipitation with SSB relative to wild-type RecQ” value [2] was ~80%.

B4: E. coli RecQ S421A (enzyme)
chain: not shown
For B4, the “SSB binding in solution relative to wild type” value [2] was ~40%.

Reference: PMC2735845 (Journal of molecular biology, 2009)
